Experimental data reported in patent US20220362145A1, “THERAPEUTIC HYDROGEL COMPOSITIONS” (THE UNIVERSITY OF BIRMINGHAM, priority 2018, published 2022).

Tests used:
fibrin gel = assay: Matrix breakdown assay (fibrin gel); type: biochemical; conditions: trans-well above fibrin gel (8.5 mg/ml), 60° C.
Protocol: […] • Add 0.9 ml of gel to an Eppendorf. • To each gel add 0.1 ml of active in PBS. • Mix well using a vortex mixer. • Refrigerate for 24 hours before testing. • 0.5 ml of fibrin gel (8.5 mg/ml) was formed in the wells of a 24 well plate. • 0.5 ml of PBS was added to each well. • 0.1 ml of gel with active was added to a trans-well insert and placed above the fibrin gel. • Samples were incubated at 60° C. to activate the proteinase K. • Images were taken at various timepoints and compared to the control fibrin gel (pbs only) and fibrin gel with proteinase k added without a fluid gel carrier.

[1] = biological target: T1, collagen type I (rat tail) (Rattus norvegicus, UniProt P02454+P02466); assay: Collagen fibrillogenesis turbidity assay; type: biochemical
T1 construct: collagen type I (rat tail; Corning, UK); purchased Corning, UK; host or cells: rat tail (tissue-derived)
Protocol: Collagen fibrillogenesis: For the dose response curves, 75 µl of PBS was added to each well of a 96 well plate kept on ice. Varying hrDecorin doses were prepared by adding 400 μg/ml of hrDecorin to the first well and subsequently serial diluting (2-fold dilution) across the plate. Following dilution, a further 150 μl of PBS buffer was added to each well. Then, 75 μl of collagen type I (rat tail; Corning, UK) (800 μg/ml) was added to each well and incubated for 2 hours at 37° C. Subsequent absorbance readings were taken using a 405 nm plate reader. Each assay consisted of duplicate blank controls, and triplicate standard dilutions followed by triplicate sample dilutions. Kinetics of fibril formation were determined using a similar setup as the dose response, without serial dilution; incubating the samples within the plate reader, and taking data points every 2 minutes.
• Prepare diluent and reaction buffers by mixing sodium phosphate and sodium chloride and adjusting the pH to 7.4. • Add sample (Gellan fluid gel +Galacorin™ Galacorin only and Gellan only) to a 96 well plate and serial dilute using diluent buffer across the rows of the plate. • On ice, prepare collagen by mixing with cold water to a concentration of 0.8 mg/ml. • Add collagen to all wells. • Add reaction buffer to all wells and mix. • Incubate at 37° C. for 2 hours. • Read using a plate reader at 405 nm

T1 sequence (P02454 152-1207 limits assumed): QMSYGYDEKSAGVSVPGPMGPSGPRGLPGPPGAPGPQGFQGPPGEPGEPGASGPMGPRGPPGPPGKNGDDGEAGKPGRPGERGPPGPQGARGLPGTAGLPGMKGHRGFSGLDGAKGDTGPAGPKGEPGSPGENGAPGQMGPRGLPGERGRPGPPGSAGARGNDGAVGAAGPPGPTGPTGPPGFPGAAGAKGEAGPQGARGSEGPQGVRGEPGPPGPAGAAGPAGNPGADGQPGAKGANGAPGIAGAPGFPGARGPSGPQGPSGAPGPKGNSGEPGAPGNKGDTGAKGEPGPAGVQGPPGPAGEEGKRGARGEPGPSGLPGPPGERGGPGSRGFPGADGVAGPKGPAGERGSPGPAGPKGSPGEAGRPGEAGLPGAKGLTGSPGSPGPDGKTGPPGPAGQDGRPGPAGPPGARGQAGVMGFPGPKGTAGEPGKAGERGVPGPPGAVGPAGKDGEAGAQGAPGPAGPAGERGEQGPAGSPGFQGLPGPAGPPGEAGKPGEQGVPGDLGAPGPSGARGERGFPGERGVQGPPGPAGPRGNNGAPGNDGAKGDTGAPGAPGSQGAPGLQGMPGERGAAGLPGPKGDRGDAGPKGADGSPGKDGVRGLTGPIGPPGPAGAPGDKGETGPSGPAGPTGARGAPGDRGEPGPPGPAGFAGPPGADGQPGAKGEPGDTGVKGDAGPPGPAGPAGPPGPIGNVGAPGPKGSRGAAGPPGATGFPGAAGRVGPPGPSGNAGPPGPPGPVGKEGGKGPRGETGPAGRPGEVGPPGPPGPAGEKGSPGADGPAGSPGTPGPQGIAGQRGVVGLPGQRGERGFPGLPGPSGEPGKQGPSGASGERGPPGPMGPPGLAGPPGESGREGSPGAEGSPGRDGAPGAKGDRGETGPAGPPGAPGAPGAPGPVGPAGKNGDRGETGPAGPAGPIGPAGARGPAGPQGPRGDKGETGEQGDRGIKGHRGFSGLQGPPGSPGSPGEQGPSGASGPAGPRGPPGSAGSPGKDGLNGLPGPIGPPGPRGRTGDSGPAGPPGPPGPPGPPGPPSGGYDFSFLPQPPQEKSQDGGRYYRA
T1 sequence (P02466 86-1125 limits assumed): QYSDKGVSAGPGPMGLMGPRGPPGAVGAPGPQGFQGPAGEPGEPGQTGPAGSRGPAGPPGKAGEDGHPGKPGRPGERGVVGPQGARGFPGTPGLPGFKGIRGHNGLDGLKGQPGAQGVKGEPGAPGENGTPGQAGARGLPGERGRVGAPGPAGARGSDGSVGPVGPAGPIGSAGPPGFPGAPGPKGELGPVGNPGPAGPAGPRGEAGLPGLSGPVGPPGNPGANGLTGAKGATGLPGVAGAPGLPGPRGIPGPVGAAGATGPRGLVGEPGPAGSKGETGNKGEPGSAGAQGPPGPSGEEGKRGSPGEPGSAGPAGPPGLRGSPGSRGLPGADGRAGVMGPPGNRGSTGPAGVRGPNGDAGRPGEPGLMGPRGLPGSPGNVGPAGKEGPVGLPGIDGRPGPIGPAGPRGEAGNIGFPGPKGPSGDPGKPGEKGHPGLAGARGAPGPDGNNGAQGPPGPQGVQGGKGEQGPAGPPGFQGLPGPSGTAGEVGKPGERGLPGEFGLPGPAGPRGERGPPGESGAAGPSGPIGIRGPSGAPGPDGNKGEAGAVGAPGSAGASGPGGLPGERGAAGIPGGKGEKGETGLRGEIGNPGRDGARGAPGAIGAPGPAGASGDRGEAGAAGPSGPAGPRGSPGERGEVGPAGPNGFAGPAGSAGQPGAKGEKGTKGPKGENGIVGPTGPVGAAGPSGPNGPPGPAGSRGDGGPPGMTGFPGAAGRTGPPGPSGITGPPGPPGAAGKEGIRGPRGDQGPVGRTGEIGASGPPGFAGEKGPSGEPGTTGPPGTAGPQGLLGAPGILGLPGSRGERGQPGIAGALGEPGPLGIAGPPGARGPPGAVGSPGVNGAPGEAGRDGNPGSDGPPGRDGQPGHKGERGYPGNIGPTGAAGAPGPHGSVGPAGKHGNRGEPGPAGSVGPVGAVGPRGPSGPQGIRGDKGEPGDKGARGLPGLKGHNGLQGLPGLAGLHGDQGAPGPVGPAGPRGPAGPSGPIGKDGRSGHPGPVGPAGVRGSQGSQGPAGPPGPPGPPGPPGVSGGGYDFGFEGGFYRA

B1: Proteinase K: extracellular matrix remodelling agent proteinase K (protein, UniProt P06873 106-384, looked up)
Proteinase K: AAQTNAPWGLARISSTSPGTSTYYYDESAGQGSCVYVIDTGIEASHPEFEGRAQMVKTYYYSSRDGNGHGTHCAGTVGSRTYGVAKKTQLFGVKVLDDNGSGQYSTIIAGMDFVASDKNNRNCPKGVVASLSLGGGYSSSVNSAAARLQSSGVMVAVAAGNNNADARNYSPASEPSVCTVGASDRYDRRSSFSNYGSVLDIFGPGTSILSTWIGGSTRSISGTSMATPHVAGLAAYLMTLGKTTAASACRYIADTANKGDLSNIPFGTVNLLAYNNYQA
With B1 as the molecule, how does the “breakdown of fibrin gel” value (fibrin gel) read?
Its value is “faster”.

B2: hrDecorin: human recombinant decorin sold by Catalent Pharma Solutions under the name Galacorin™ (protein, UniProt P07585 31-359, looked up)
Decorin: DEASGIGPEVPDDRDFEPSLGPVCPFRCQCHLRVVQCSDLGLDKVPKDLPPDTTLLDLQNNKITEIKDGDFKNLKNLHALILVNNKISKVSPGAFTPLVKLERLYLSKNQLKELPEKMPKTLQELRAHENEITKVRKVTFNGLNQMIVIELGTNPLKSSGIENGAFQGMKKLSYIRIADTNITSIPQGLPPSLTELHLDGNKISRVDAASLKGLNNLAKLGLSFNSISAVDNGSLANTPHLRELHLDNNKLTRVPGGLAEHKYIQVVYLHNNNISVVGSSDFCPPGHNTKKASYSGVSLFSNPVQYWEIQPSTFRCVYVRSAIQLGNYK
Which results are given for B2?
effect on collagen fibrillogenesis (fibril formation) ([1]; turbidity at 405 nm vs collagen only control): slowing the onset of fibrillogenesis; critical concentration above which fibrillogenesis is inhibited ([1]; turbidity at 405 nm, 2 hours at 37° C.): 0.5 μg/ml; concentration at which minimum turbidity is achieved ([1]; turbidity at 405 nm, no further reduction above): > 10000 ng/mL
